“And” between values parts separate entries of the source, which are not always exact repeats. Equal entries are not always repeated.
B1: semenogelin II: isolated from human seminal fluid (protein, UniProt Q02383 24-582, looked up)
Semenogelin-2: QKGGSKGQLPSGSSQFPHGQKGQHYFGQKDQQHTKSKGSFSIQHTYHVDINDHDWTRKSQQYDLNALHKATKSKQHLGGSQQLLNYKQEGRDHDKSKGHFHMIVIHHKGGQAHHGTQNPSQDQGNSPSGKGLSSQCSNTEKRLWVHGLSKEQASASGAQKGRTQGGSQSSYVLQTEELVVNKQQRETKNSHQNKGHYQNVVDVREEHSSKLQTSLHPAHQDRLQHGPKDIFTTQDELLVYNKNQHQTKNLSQDQEHGRKAHKISYPSSRTEERQLHHGEKSVQKDVSKGSISIQTEEKIHGKSQNQVTIHSQDQEHGHKENKISYQSSSTEERHLNCGEKGIQKGVSKGSISIQTEEQIHGKSQNQVRIPSQAQEYGHKENKISYQSSSTEERRLNSGEKDVQKGVSKGSISIQTEEKIHGKSQNQVTIPSQDQEHGHKENKMSYQSSSTEERRLNYGGKSTQKDVSQSSISFQIEKLVEGKSQIQTPNPNQDQWSGQNAKGKSGQSADSKQDLLSHEQKGRYKQESSESHNIVITEHEVAQDDHLTQQYNEDRNPIST
B2: nidogen-1: recombinant human nidogen-1, linker protein in the basement membrane (protein, UniProt P14543 29-1247, looked up)
Nidogen-1: LSRQELFPFGPGQGDLELEDGDDFVSPALELSGALRFYDRSDIDAVYVTTNGIIATSEPPAKESHPGLFPPTFGAVAPFLADLDTTDGLGKVYYREDLSPSITQRAAECVHRGFPEISFQPSSAVVVTWESVAPYQGPSRDPDQKGKRNTFQAVLASSDSSSYAIFLYPEDGLQFHTTFSKKENNQVPAVVAFSQGSVGFLWKSNGAYNIFANDRESVENLAKSSNSGQQGVWVFEIGSPATTNGVVPADVILGTEDGAEYDDEDEDYDLATTRLGLEDVGTTPFSYKALRRGGADTYSVPSVLSPRRAATERPLGPPTERTRSFQLAVETFHQQHPQVIDVDEVEETGVVFSYNTDSRQTCANNRHQCSVHAECRDYATGFCCSCVAGYTGNGRQCVAEGSPQRVNGKVKGRIFVGSSQVPIVFENTDLHSYVVMNHGRSYTAISTIPETVGYSLLPLAPVGGIIGWMFAVEQDGFKNGFSITGGEFTRQAEVTFVGHPGNLVIKQRFSGIDEHGHLTIDTELEGRVPQIPFGSSVHIEPYTELYHYSTSVITSSSTREYTVTEPERDGASPSRIYTYQWRQTITFQECVHDDSRPALPSTQQLSVDSVFVLYNQEEKILRYALSNSIGPVREGSPDALQNPCYIGTHGCDTNAACRPGPRTQFTCECSIGFRGDGRTCYDIDECSEQPSVCGSHTICNNHPGTFRCECVEGYQFSDEGTCVAVVDQRPINYCETGLHNCDIPQRAQCIYTGGSSYTCSCLPGFSGDGQACQDVDECQPSRCHPDAFCYNTPGSFTCQCKPGYQGDGFRCVPGEVEKTRCQHEREHILGAAGATDPQRPIPPGLFVPECDAHGHYAPTQCHGSTGYCWCVDRDGREVEGTRTRPGMTPPCLSTVAPPIHQGPAVPTAVIPLPPGTHLLFAQTGKIERLPLEGNTMRKTEAKAFLHVPAKVIIGLAFDCVDKMVYWTDITEPSIGRASLHGGEPTTIIRQDLGSPEGIAVDHLGRNIFWTDSNLDRIEVAKLDGTQRRVLFETDLVNPRGIVTDSVRGNLYWTDWNRDNPKIETSYMDGTNRRILVQDDLGLPNGLTFDAFSSQLCWVDAGTNRAECLNPSQPSRRKALEGLQYPFAVTSYGKNLYFTDWKMNSVVALDLAISKETDAFQPHKQTRLYGITTALSQCPQGHNYCSVNNGGCTHLCLATPGSRTCRCPDNTLGVDCIEQK
B3: semenogelin I: isolated from human seminal fluid (protein, UniProt P04279 24-462, looked up)
Semenogelin-1: QKGGSKGRLPSEFSQFPHGQKGQHYSGQKGKQQTESKGSFSIQYTYHVDANDHDQSRKSQQYDLNALHKTTKSQRHLGGSQQLLHNKQEGRDHDKSKGHFHRVVIHHKGGKAHRGTQNPSQDQGNSPSGKGISSQYSNTEERLWVHGLSKEQTSVSGAQKGRKQGGSQSSYVLQTEELVANKQQRETKNSHQNKGHYQNVVEVREEHSSKVQTSLCPAHQDKLQHGSKDIFSTQDELLVYNKNQHQTKNLNQDQQHGRKANKISYQSSSTEERRLHYGENGVQKDVSQSSIYSQTEEKAQGKSQKQITIPSQEQEHSQKANKISYQSSSTEERRLHYGENGVQKDVSQRSIYSQTEKLVAGKSQIQAPNPKQEPWHGENAKGESGQSTNREQDLLSHEQKGRHQHGSHGGLDIVIIEQEDDSDRHLAQHLNNDRNPLFT

Legend:
[1] = molecular target: T1, PSA (Homo sapiens, UniProt P07288); assay: Proteolytic cleavage of protein substrates by PSA (SDS-PAGE, silver staining); format: biochemical; details: 37°C; for time for degradation of half of the intact protein: substrate 1 µM (0.5 µM semenogelin I)
T1 construct: from tissue; host or cells: pooled human seminal fluid
T1 sequence (P07288 25-261): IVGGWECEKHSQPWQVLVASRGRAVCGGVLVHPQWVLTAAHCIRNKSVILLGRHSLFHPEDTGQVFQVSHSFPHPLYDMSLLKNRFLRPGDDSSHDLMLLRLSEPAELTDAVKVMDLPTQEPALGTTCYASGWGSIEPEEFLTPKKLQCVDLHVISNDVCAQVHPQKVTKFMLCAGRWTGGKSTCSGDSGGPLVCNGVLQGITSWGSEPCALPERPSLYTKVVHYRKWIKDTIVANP
Protocol: The major form of active PSA (isoform PSA-B) was purified from pooled human seminal fluid by immunoaffinity chromatography followed by anion exchange chromatography. Semenogelins I and II were isolated from human seminal fluid as previously described, but instead of alkylating the proteins, the reducing agent 30 mM dithiothreitol (Sigma-Aldrich, St. Louis, MO) was included in all buffers during purification. Semenogelins were stored in the purification buffer containing 2 M urea and 5 mM EDTA at −70°C. Prior to cleavage by PSA, the buffer was exchanged to 50 mM Tris, pH 7.7, containing 0.15 M NaCl (TBS), with Amicon Ultra centrifugal filter units (MW cut-off 30 kDa) (Millipore, Cork, Ireland) at 4°C, and protein concentration was determined by measuring absorbance at 280 nm.
Protein LoBind tubes (Eppendorf AG, Hamburg, Germany) were used in all protein degradation experiments.
PSA (0.2–1 µM) and 0.5–1 µM of each protein substrate were incubated at 37°C for 22 h in TBS buffer. During the incubation, samples of 15 µl were taken at different time points: 0 min, 10 min, 30 min, 2 h, 5 h and 22 h, and stored at −20°C before further analysis.
Immediately after each incubation, reducing 4× SDS-loading buffer (8% SDS), containing 1 M β-mercaptoethanol or 75 mM dithiothreitol, was added to each sample and proteins were denatured at 70°C for 10 min. The samples were immediately analyzed by SDS-PAGE or frozen at −20°C. Frozen samples were heated again at 70°C before loading on the gel. The cleavage of protein substrates by PSA, i.e., the disappearance of the full-length protein bands, was quantified from scanned images of silver stained gels by the measurement of relative optical densities of the protein bands using ImageJ [40].
Proteins were separated using the XCell SureLock Mini Cell system and pre-cast NuPAGE Novex 4–12% Bis-Tris Gels (both from Invitrogen, Carlsbad, CA). MES running buffer, pH 7.3, containing 50 mM MES [2-(N-morpholino)ethanesulfonic acid] (Sigma-Aldrich), 50 mM Tris base, 3.5 mM SDS and 1 mM EDTA was used. Dithiothreitol (0.5 mM) (Sigma-Aldrich) was added to the cathode buffer chamber.
Proteins were visualized either by silver staining or Western blotting. For silver staining (modified from), the gel was fixed for one hour at room temperature in 30% ethanol, containing 0.5% acetic acid, and rinsed with 20% ethanol and water for 10 min each. Then the gel was sensitized with 0.02% sodium thiosulfate for 1 min and rinsed twice with water. After 30 min incubation in 0.2% AgNO3, the gel was rinsed briefly with water and proteins were detected with development solution, containing 700 µl/l of 37% formaldehyde, 0.001% sodium thiosulfate and 3% anhydrous Na2CO3. The development reaction was finished with stop solution containing 5% Tris and 2.5% acetic acid.

[2] = test system: HUVECs; assay: HUVEC tube formation assay on Matrigel; format: cell-based, human; details: two separate experiments
Protocol: Human umbilical vein endothelial cells (HUVECs) were isolated from umbilical cord veins and grown in Endothelial Cell Growth Medium (Promocell, Heidelberg, Germany) with 2% Ultroser G BioSepra serum substitute (PALL BioSepra, Cergy, France) and growth factors EGF and bFGF. For tube formation, HUVECs were grown on top of Matrigel (BD Biosciences) as described previously, [29].
To study the effect of PSA-cleaved protein fragments, 0.08 µM nidogen-1 or 0.4 µM galectin-3 (10 µg/ml each) were first incubated with 1 µM PSA for 24 h at 37°C in PBS (Lonza). Then PSA activity was blocked by one-hour incubation at room temperature with 2 µM monoclonal antibody 5C7 [38]. The mixture containing nidogen-1 or galectin-3 fragments with PSA blocked by antibody or the same amount of intact nidogen-1 or galectin-3 were added together with the cells onto gelled Matrigel and the cells were allowed to form tubular networks for 20 h. Control wells contained either PBS or 1 µM PSA. After overnight incubation, cell culture medium was collected from PBS and PSA control wells for SDS-PAGE and Western blotting. Images of tubular networks (100×magnification) were taken using an Axiovert 200 inverted light microscope connected to an AxioCam digital camera and visualized by AxioVision software (all from Zeiss, Göttingen, Germany).

[3] = molecular target: T1, PSA; assay: N-terminal sequencing of nidogen-1 fragments generated by PSA; format: biochemical; details: recombinant human nidogen-1, 1 µM, 2 µM PSA, 22 h, 37°C; Edman degradation; UniProt P14543 numbering
Protocol: For N-terminal sequencing, 1 µM (10 µg) nidogen-1 was first incubated with 2 µM (5 µg) PSA for 22 h at 37°C. Then the resulting protein fragments were separated by SDS-PAGE and electroblotted onto polyvinylidene-difluoride (PVDF) membrane. After staining with Coomassie Brilliant Blue the protein fragments were directly sequenced by Edman-degradation using the Procise 494A Sequencer (Perkin Elmer Applied Biosystems, Foster City, CA).

[4] = molecular target: T1, PSA; details: more than half of semenogelin I degraded; ref Malm and coworkers (2000), [16], [63]; cited from earlier work
Protocol: In the present study, we compared the proteolytic activity of PSA towards several protein substrates. As shown previously, semenogelins are cleaved very effectively by PSA. Malm and coworkers (2000) reported that more than half of semenogelin I is degraded after 15 min incubation with PSA [16], [63] and we observed this after 11 min incubation. Proteolysis of the other protein substrates, i.e., fibronectin, IGFBP-3, galectin-3 and nidogen-1, took much longer, reflecting the high substrate specificity of PSA for semenogelins. […] However, the detailed mechanism of the antiangiogenic activity of PSA remains unclear. Some of the proteolytically produced fragments of extracellular matrix (ECM) proteins act as endogenous angiogenesis inhibitors and may mediate the antiangiogenic effect of PSA. […] Although plasminogen ...

[5] = 0.2 µM PSA, TBS, disappearance of full-length band

| Molecule | time for degradation of half of the intact protein [1, 5] [min] | effect on tube formation, PSA-generated fragments ([2]; 10 µg/ml (0.08 µM nidogen-1, 0.4 µM galectin-3) precleaved by 1 µM PSA 24 h, PSA blocked by mAb 5C7, 20 h) | effect on tube formation, full-length protein ([2]; 10 µg/ml (0.08 µM nidogen-1, 0.4 µM galectin-3), 20 h, HUVECs on Matrigel) | time for degradation of 50% of the protein ([1]; 0.2 µM PSA, 1 µM substrate, TBS, disappearance of full-length band) [h] | size of nidogen-1 fragments formed by PSA ([1]; 1 µM PSA, 0.5 µM recombinant human nidogen-1, 20 h) | cleavage site of PSA in nidogen-1 [3] | incubation time with more than half degraded by PSA [4] [min] |
| --- | --- | --- | --- | --- | --- | --- | --- |
| B1 | 80 | – | – | – | – | – | – |
| B2 | – | did not have any effect on tube formation | did not have any effect on tube formation | 22 | 85 kDa and 55 kDa | GVVF^380 ↓ SYNTD | – |
| B3 | 11 | – | – | – | – | – | 15 |

Reference: paper PMC4169579, “Proteolytic Activity of Prostate-Specific Antigen (PSA) towards Protein Substrates and Effect of Peptides Stimulating PSA Activity” (PLoS ONE, 2014)
